This test has as its target T1, Mouse His6-p110β(1-1064) (mouse, UniProt Q8BTI9 1-1064).
T1 construct: p110β catalytic subunit of class IA PI3K, mouse, residues 1-1064 (full length); N-terminal extension from pFastBac-HTb printed as [residues removed]; (His6 tag and TEV site); this molecule is used there; also called full-length mouse p110β; p110β catalytic subunit; source: Sf9 cells, recombinant baculoviruses, coinfected with the regulatory subunit; complex purified (HisTrap, Q-Sepharose, …)
In words: crystal structure; mouse His6-p110β(1-1064)/p85β-icSH2(423-722) complex at 4 mg/ml with 20 mM sodium phenyl phosphate and 150 μM GDC0941; 12% PEG 3350, 0.1 M potassium citrate pH 6, 0.4 M lithium sulfate, 22°C; 3.3 Å; one 1:1 complex in the asymmetric unit. Particulars: both partners purified.

T1 sequence (Q8BTI9 whole entry, the tested form may be a part): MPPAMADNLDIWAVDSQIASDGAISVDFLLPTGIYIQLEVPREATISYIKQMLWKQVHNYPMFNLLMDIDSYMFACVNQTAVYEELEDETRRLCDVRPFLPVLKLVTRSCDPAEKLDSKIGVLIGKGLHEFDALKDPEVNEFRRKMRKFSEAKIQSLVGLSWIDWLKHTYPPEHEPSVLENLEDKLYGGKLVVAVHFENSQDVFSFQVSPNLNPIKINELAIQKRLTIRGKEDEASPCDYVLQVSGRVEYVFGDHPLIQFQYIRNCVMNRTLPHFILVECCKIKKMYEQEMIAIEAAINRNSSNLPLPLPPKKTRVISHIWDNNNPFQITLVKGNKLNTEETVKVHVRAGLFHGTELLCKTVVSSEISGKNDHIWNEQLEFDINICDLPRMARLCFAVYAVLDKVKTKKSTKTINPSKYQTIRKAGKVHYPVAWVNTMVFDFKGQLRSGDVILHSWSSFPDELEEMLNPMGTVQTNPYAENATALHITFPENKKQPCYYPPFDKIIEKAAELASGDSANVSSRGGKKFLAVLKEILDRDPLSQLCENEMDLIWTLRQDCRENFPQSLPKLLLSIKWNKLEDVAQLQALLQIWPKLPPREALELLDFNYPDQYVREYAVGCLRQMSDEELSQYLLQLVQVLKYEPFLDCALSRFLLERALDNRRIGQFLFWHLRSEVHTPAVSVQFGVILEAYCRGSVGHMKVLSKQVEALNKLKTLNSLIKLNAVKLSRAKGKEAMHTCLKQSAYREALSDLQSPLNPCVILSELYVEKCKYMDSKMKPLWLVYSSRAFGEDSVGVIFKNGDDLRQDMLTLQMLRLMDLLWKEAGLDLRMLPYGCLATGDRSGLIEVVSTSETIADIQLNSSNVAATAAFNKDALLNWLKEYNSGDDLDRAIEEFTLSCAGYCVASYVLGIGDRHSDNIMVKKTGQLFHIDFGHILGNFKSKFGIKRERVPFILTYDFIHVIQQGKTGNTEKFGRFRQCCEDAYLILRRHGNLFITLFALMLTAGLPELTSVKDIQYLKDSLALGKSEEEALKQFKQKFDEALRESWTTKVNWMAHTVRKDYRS

B1: mouse p85β-icSH2 (residues 423–722) (domain or fragment, UniProt O08908 423-722, looked up)
chain: QQDQVVKEDSIEAVGAQLKVYHQQYQDKSREYDQLYEEYTRTSQELQMKRTAIEAFNETIKIFEEQGQTQEKCSKEYLERFRREGNEKEMQRILLNSERLKSRIAEIHESRTKLEQDLRAQASDNREIDKRMNSLKPDLMQLRKIRDQYLVWLTQKGARQRKINEWLGIKNETEDQYSLMEDEDALPHHEERTWYVGKINRTQAEEMLSGKRDGTFLIRESSQRGCYACSVVVDGDTKHCVIYRTATGFGFAEPYNLYGSLKELVLHYQHASLVQHNDALTVTLAHPVRAPGPGPPSAAR
notes: No tag (pFastBac1); also called p85-icSH2; source: Sf9 cells, recombinant baculoviruses, coinfected with p110β; complex purified (HisTrap, Q-Sepharose, heparin, gel filtration)
For B1, the binding result was “binds”.

For the origin of these results see publication PMC3670040, “Structure of Lipid Kinase p110β/p85β Elucidates an Unusual SH2-Domain-Mediated Inhibitory Mechanism” (Molecular Cell, 2011).
